Tested on: MS2 coat protein
Assay: apparent KD of MS2 coat protein; designed switch direction (-1 OFF switch, 1 ON switch): -1; higher = weaker reporter binding
Summary of the method: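 An oligonucleotide input, 200 uM small-molecule ligand, or no input was present during titration of SNAP-549-labelled MS2 coat protein, which was doubled from 0.7 or 1.5 nM to 3 µM. Designed RNA switches had been transcribed on Illumina chips by stalled E. coli RNA polymerase. Apparent KD per design is the median over clusters of curves fitted to normalised cluster fluorescence.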

[1] = Eterna round: R95, input ligand: microRNA oligo, concentration not stated
[2] = input ligand: microRNA oligo, concentration not stated
[3] = Eterna round: R95, input ligand: FMN 200 uM
[4] = Eterna round: R95, input ligand: none

Sequence | apparent KD of MS2 coat protein (input ligand: FMN 200 uM) [nM] | apparent KD of MS2 coat protein (input ligand: none) [nM] | apparent KD of MS2 coat protein [1] [nM] | apparent KD of MS2 coat protein [2] [nM] | further results
UUAAUGAUUGUGAGGAUAUCGGAUAGAUAGAUAUUUGAGAAGGUACAUGAGGAUCACCCAUGUGUGAUUAGAGA [Brourd's EX4 #67] (Eterna round: R97, puzzle: Brourd's mod of Exclusion 4) | 155 | 111 | – | – | –
AGUCCUGAUGUUAGGAUAUGCAACUAGCCAUUGUAGCAGAAGGAACAUGAGGAUCACCCAUGUACAAAGACCCA [Xeonbera] (puzzle: Brourd's mod of Exclusion 4) | – | – | 26.6 | – | –
CGUCUGUAAGGAUAUGGUUGCAUCAACAUGAGGAUCACCCAUGUAACAUGGGACUAGUGAUUAGAAGGUACGAACG [EX5 #58] (Eterna round: R97, puzzle: Exclusion 5) | 156 | 142 | – | – | –
CGGUACUGAGGAUAUACAUGAGGAUCACCCAUGUGUUCCAGCUAGCGUACUGGCAUUUGUAGAAGGCGGUGCUG [JL-ex3-3.22 Brourd mod] (puzzle: Exclusion 3) | – | – | 16 | – | –
AUCUACCGAGCAGGAUAUCCAGGCACAUGAGGAUCACCCAUGUCAGGGAGAGAAGUUGUUUGCGUGGAGAAGGGCUAUAAAUUA [Isdiatte] (Eterna round: R96, puzzle: Exclusion NG 2) | 314 | 162 | – | 163 | –
GCAAGCUUAAUCUGUAUGAACAUGAGGAUCACCCAUGUAUAAGGGAAUUCUUUUGGGUUUUUUAUUGCUCGUCUUAU [JR_STOV1_Sub024] (Eterna round: R97, puzzle: Sensor, turn-off variant 1) | 260 | 329 | – | – | –
GUCGUGCAGCUUUGCUGUACGAGUACAUGAGGAUCACCCAUGUAGGAUAUGGUACGCUUUGCGUGCUAGAAGGAUAUGUGUAGC [salish99_ExNG3_r04_503] (Eterna round: R96, puzzle: Exclusion NG 3) | 44.8 | 37.1 | – | 29 | –
AAGAAACAUGAGGAUCACCCAUGUGAGGAUAUGAUUAAGAAAAGAAAAGAAAGAAGAGUCAGAAGGCACAAAGG [salish99-ex1_r3_063] (puzzle: Exclusion 1) | – | – | 48.8 | – | apparent KD of MS2 coat protein [3]: 84.9 nM; apparent KD of MS2 coat protein [4]: 61.8 nM
GACUGGACGUGGUCUGGUAACAUGAGGAUCACCCAUGUAGGUCUAAGAACAUGCCUUUUGCACGCUCGUCUUAUAUA [JR_SV3TOV1_Sub064] (puzzle: Sensor v3, turn-off variant 1) | – | – | 34.8 | – | apparent KD of MS2 coat protein [3]: 33.3 nM; apparent KD of MS2 coat protein [4]: 32.7 nM
UUGUUGUAUGUAGGAUAUGCGUAUUAUUAUUGGGCAGAAGGACAUGAGGAUCACCCAUGUAUGUUGUUGUUAUAUAUUAUAUAU [Title] (Eterna round: R96, puzzle: Exclusion NG 1) | 66.4 | 47.8 | – | 35.8 | –
AUAAAAGUAGGAUAUUGACUGAUCGACAUGAGGAUCACCCAUGUGGUGCUGUGCGGUAUUCAAGAAGGGCUAAAAU [Ceisusma] (puzzle: Exclusion 5) | – | – | 20.4 | – | –
UUUUAACAUGAGGAUCACCCAUGUGAGGAUAUCGAAAUUUAUAUUUAUAUUAAUUUAUCGAGAAGGCACAUUUU [JMF 88] (puzzle: Exclusion 1) | – | – | 166 | – | –
UUGAUUCAUUCCUCCAUAAACAUGAGGAUCACCCAUGUAAGUGAGGAUAUAGUUGGAGUAGUAUACUAGAAGGCACUUAGAUAU [JR_ExcNG3_Sub047] (Eterna round: R96, puzzle: Exclusion NG 3) | – | – | – | 8.77 | –
CUUAAUUGUCACAUGGGUGACAUGAGGAUCACCCAUGUCACAAGCUUUUUGUUCGUCUUAUAAUUAACCCAUGUGAC [Stov1/12-B3] (Eterna round: R97, puzzle: Sensor, turn-off variant 1) | 13.8 | 13.7 | – | – | –
CCAAUCAGAGGAUAUGCGAAUAAAUAAAACUUUUUUUUUUAACAUGAGGAUCACCCAUGUAGAAGGCUGUAACC [Ex2 #43] (Eterna round: R97, puzzle: Exclusion 2) | 31.5 | 25.4 | – | – | –
GUCAUGUUAGGAUAUCAAACAUGUGACUUCGGUCACUGUCCUGAGAAGGAACAUGAGGAUCACCCAUGUUGGAC [Ex4-3: 57] (puzzle: Exclusion 4) | – | – | 16.2 | – | –
AAGAAACAUGAGGAUCACCCAUGUGAGGAUAUGCAAGAAAGAAAGAAAGAAAGAAGAAGCAGAAGGCACAAAGG [Gaius Turranius] (Eterna round: R96, puzzle: Exclusion 1) | 84.7 | 50.7 | – | 29.7 | –
GACCUGGCGAAGGAUAUCUGGAGGGAGUACAUCAGAGAAGGUCGCACAUGAGGAUCACCCAUGUUUGCAAUAGC [Eternabot (Original) Solution 22] (Eterna round: R97, puzzle: Exclusion 6) | 25.7 | 21.6 | – | – | –

Sequence | apparent KD of MS2 coat protein (input ligand: FMN 200 uM) [nM] | apparent KD of MS2 coat protein (input ligand: none) [nM] | apparent KD of MS2 coat protein [1] [nM] | apparent KD of MS2 coat protein [2] [nM] | further results
AUAUUACGAGGAUAUCGUUUUUAUCACAUGAGGAUCACCCAUGUAAUUUAUGUUUCGUUUCGAGAAGGCGUAAGUU [JR_E5_Sub068] (puzzle: Exclusion 5) | – | – | 17.8 | – | –
CCAUUCAGAGGAUAUGCGAAUAAAUAAAACUUUUUUUUUUAACAUGAGGAUCACCCAUGUAGAAGGCUGUAACC [Ex2 #44] (Eterna round: R97, puzzle: Exclusion 2) | 31.4 | 27.6 | – | – | –
GGAUGCUGAGUAAGGAUAUGGUAGGCUUGCGCCUACCAGAAGGUACAUGAGGAUCACCCAUGUUAGCAUCCAGU [eternacac ex4r4 #3] (Eterna round: R97, puzzle: Brourd's mod of Exclusion 4) | 19.6 | 16.2 | – | – | –
ACGCACACGCACGCACGCACACAUGAGGAUCACCCAUGUAAUUAGGAUAUAUUGAAGAACAGAGAAUAGAAGGAAUUACUCAUG [Default title] (Eterna round: R96, puzzle: Exclusion NG 3) | 105 | 70.7 | – | 88 | –
CGCACACAUGAGGAUCACCCAUGUGAGGAUAUCAUGCUUCGUAGUAAACUACGAAGUGUGAGAAGGCACAUGUU [Omei Ex1 D9] (Eterna round: R97, puzzle: Exclusion 1) | 144 | 55 | – | – | –
GUUGUGUUAGGAUAUAACAACUACUAAUAAAUUAGUAGUUGUUAGAAGGAACAUGAGGAUCACCCAUGUAUGAC [-21.3, -20.2 kcal, A 36%] (Eterna round: R97, puzzle: Exclusion 4) | 52.5 | 30.5 | – | – | –
CUGAUGUGAGGAUAUGUGAUCUGCCUUCUAUAUAGAUGAUUACAGAAGGCACAUGAGGAUCACCCAUGUAGAUC [Ex4 - 3 - 25] (puzzle: Exclusion 4) | – | – | 51.8 | – | –
GCUGGUCGAGGAUAUACAUGAGGAUCACCCAUGUUGAUCAACUGCCGAUAGGCAGAAUGUAGAAGGCGACCAGC [E3/7-A1] (Eterna round: R97, puzzle: Exclusion 3) | 137 | 1110 | – | – | –
AGUACUAACACGUAAGUGUUAGUACUAUAAGCUUGUGUUACAUGAGGAUCACCCAUGUCCUCAUAAGCUCGUCUUAA [Mat - Sensor v3 - Turn-off var 2 - D71] (puzzle: Sensor v3, turn-off variant 2) | – | – | 132 | – | apparent KD of MS2 coat protein [3]: 34.3 nM; apparent KD of MS2 coat protein [4]: 39.4 nM
UUUAAUGGAAUUAAGAUCACAUGAGGAUCACCCAUGUAUAUAUAGGAUAUCAGCUCGUUUAGAGCUGAGAAGGAUAUAUACAUA [ExNG3/6-B2] (Eterna round: R96, puzzle: Exclusion NG 3) | 90.1 | 356 | – | 119 | –
GCAUGCUGAGUUAGGAUAUGCUAGCGUUGCCGCUAGCAGAAGGAACAUGAGGAUCACCCAUGUUAGCAUGCAGU [eternacac ex4r4 #2] (Eterna round: R97, puzzle: Brourd's mod of Exclusion 4) | 16 | 14 | – | – | –
CGGUGCUUGUGGAAACAUGAGGAUCACCCAUGUUGAGUUAGCGAGGAUAUCGGUAACACAUGUCACGAGAAGGCGCGAACCAGA [Ex NG3 #33] (Eterna round: R96, puzzle: Exclusion NG 3) | 39.6 | 16.2 | – | 18.1 | –
UGUUCGCGAGGAUAUGCAUUCGAGUCCAUUACGUGUCUGGGACUUGAGGAUCACCCAAGUAGAAGGCGUCUCAC [salish99_ex2_r4_645] (Eterna round: R97, puzzle: Exclusion 2) | 115 | 122 | – | – | –
CGAGUGUAAGGAUAUUCGGCACUAGGGACCACCCUAGUGUAGAAGAAGGUACAUGAGGAUCACCCAUGUGGUUA [Bereisonma] (puzzle: Exclusion 4) | – | – | 273 | – | –
AUUAUGUCAGGAUAUCAGUAGUAAAAAAAAAAAAUUACUACUGAGAAGGGACAUGAGGAUCACCCAUGUCAAAA [EX4 308: Super Stable 8] (Eterna round: R96, puzzle: Exclusion 4) | – | – | – | 21.3 | –
CACGAAAUGUGAGGAUAUGUGCGACAAAGUUGCACAGAAGGCACAUGAGGAUCACCCAUGUAAGCUAGGUCGAAAGACCUAGCG [Omei Exc(NG)1 Av2] (Eterna round: R96, puzzle: Exclusion NG 1) | 269 | 89.8 | – | 56.3 | –
UUUUAACAUGAGGAUCACCCAUGUGAGGAUAUCGAAAUUUAUAUUAAUAUUAUUUAAACGAGAAGGCACAUUUU [JMF 43] (puzzle: Exclusion 1) | – | – | 70.4 | – | –
UGUUGUCGCGCAGGAUAUGUAUGAGGAUCACCCAUUAAUAAAUUUUAACCACGAGGAUCACCCGUGUAGAAGGGCGCGACAACA [pwkr exNG2 2xF5 1xFMN.17] (Eterna round: R96, puzzle: Exclusion NG 2) | 36.6 | 33.1 | – | 19.7 | –

From the supplement of paper PMC9170038
